Experimental data published in paper PMC7804290.
Numbering of substitutions follows the chain as printed.

B1: scaffold 1 (RMP at -3) (structured_RNA)
RNA 1: UUUUCAUGCAUCGCGUAGGCUCAUACCGUAUUGAGACCUUUUGGUCUCAAUACGGUA
RNA 2: UGAGCCUACGCGAUG
modifications: remdesivir monophosphate (RMP, 1'-cyano-4-aza-7,9-dideazaadenosine) at position 13 of strand 2, written as A
B2: scaffold 2 (RMP at -4) (structured_RNA)
RNA 1: B1 RNA 1 with U11C, C12U
RNA 2: UGAGCCUACGCAGUG
modifications: remdesivir monophosphate (RMP, 1'-cyano-4-aza-7,9-dideazaadenosine) at position 12 of strand 2, written as A (oligo R-4)
B3: scaffold 3 (AMP at -4) (structured_RNA)
RNA 1: B1 RNA 1 with U11C, C12U
RNA 2: UGAGCCUACGCAGUG

Tests used:
[1] = biological target: T1, nsp12 (RdRp catalytic subunit);nsp8;nsp7 (SARS-CoV-2;SARS-CoV-2;SARS-CoV-2, UniProt P0DTD1;P0DTD1;P0DTD1 4393-5324;3943-4140;3860-3942, ||); assay: cryo-EM (complex isolated by SEC); conditions: protein: recombinant;recombinant;recombinant; copies: 1;2;1
[2] = biological target: T1, nsp12 (RdRp catalytic subunit);nsp8;nsp7; assay: cryo-EM (complex isolated by SEC); 1 mM Mg2+; AMP control for structure 2; conditions: protein: recombinant;recombinant;recombinant; copies: 1;2;1

Binder | binding result [1] | binding result [2]
B1 | binds | 
B2 | binds | 
B3 |  | binds
